Source: PMC10675646 (Viruses, 2023)
Where no end group is shown, it is not given here. [ ]: non-standard residue; d: D form. SeMet = C[Se]CC[C@H](N)C(=O)O

Target: T1, TRAF2 TRAF-C domain (human TRAF2 residues 315-501), tag cleaved, for crystallization (human, UniProt Q12933 315-501)
T1 sequence (looked up): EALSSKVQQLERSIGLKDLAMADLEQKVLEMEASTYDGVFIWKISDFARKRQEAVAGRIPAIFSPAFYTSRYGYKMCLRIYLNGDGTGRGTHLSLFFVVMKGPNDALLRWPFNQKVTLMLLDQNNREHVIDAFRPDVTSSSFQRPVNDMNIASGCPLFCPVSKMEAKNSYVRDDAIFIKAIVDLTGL
Test: crystal structure
Conditions: both partners purified

B1: Selenomethionine (Se-Met) ORF3a peptide (residues 30-45, isoleucine 37 replaced with selenomethionine) (peptide)
peptide: RATATIP[SeMet]QASLPFGW
**Q.** Does B1 bind?
**A.** binds
